The Kd is the constant that tells how readily two partners part at equilibrium. What is called koff is the first-order rate constant of dissociation. The low end stands for slow dissociation, the high end for fast dissociation. As usually defined, the kon is a measure of how fast the partners come together.

Holding throughout (details): both partners purified
Data set [1] deals with T1, protocadherin-15 EC1+2 G16D, His-tagged (mouse, UniProt Q99PJ1 27-259, G16D).
T1 construct: Protocadherin-15 (PCDH15), mouse, N-terminal fragment EC1+2; Mutant of m12 made with QuikChange; Held on the Ni-NTA chip by its His tag in SPR; also called pcdh15(G16D); not shown: His6, C-terminal, kept
Description: SPR; Biacore T100, Ni-NTA chip, 6xHis pcdh15 immobilised, tag-free cdh23 0.25 to 30 μM injected, 25°C, SEC buffer; global kinetic fit with EVILFIT (distribution model). A general note: In SPR one partner is held on a chip, and binding of the other changes the refractive index at the surface.

The target in data set [2] is T2, protocadherin-15 EC1+2 Q165L, His-tagged (mouse, UniProt Q99PJ1 27-259, Q165L).
T2 construct: Protocadherin-15 (PCDH15), mouse, N-terminal fragment EC1+2; Mutant of m12 made with QuikChange; Held on the Ni-NTA chip by its His tag in SPR; also called pcdh15(Q165L); not shown: His6, C-terminal, kept
Described as above.

The target of data set [3] is T3, protocadherin-15 EC1+2, wild type, His-tagged (mouse, UniProt Q99PJ1 27-259).
T3 construct: Protocadherin-15 (PCDH15), mouse, N-terminal fragment EC1+2; pET21a, NdeI/XhoI; predicted molecular weight 27.5 kDa; Held on the Ni-NTA chip by its His tag in SPR; also called pcdh15; pcdh15(WT); not shown: His6, C-terminal, kept
The data set is described as above.

Data set [4] concerns the target T1, protocadherin-15 EC1+2 G16D, His-tagged. The experiment in a line: SPR; Biacore T100, Ni-NTA chip, 6xHis pcdh15 immobilised, tag-free cdh23 0.25 to 30 μM injected, 25°C, SEC buffer; KD from binding isotherms (Biacore T100 evaluation software).
The target in data set [5] is T2, protocadherin-15 EC1+2 Q165L, His-tagged. The data set is described as above.
Data set [6] has as its target T3, protocadherin-15 EC1+2, wild type, …. The description is as above.
Data set [7] concerns the target T1, protocadherin-15 EC1+2 G16D, His-tagged. The experiment in a line: thermal scanning (thermal stability shift assay with SYPRO orange); pcdh15 fixed at 0.1 mg/mL (~4 μM), cdh23 0.1 to 0.5 mg/mL (~4 to 20 μM; cdh23:pcdh15 1:1 to 5:1); SEC buffer (20 mM Tris-HCl pH 7.5, 150 mM KCl, 50 mM NaCl, 2 mM CaCl2); 10 to 95°C in 0.2°C steps, 5 s equilibration; read-out: shift of the Tm of pcdh15 (ΔTm).

Data set [8] addresses T2, protocadherin-15 EC1+2 Q165L, His-tagged. Described as above.
For data set [9], the target named is T4, protocadherin-15 EC1+2 I108N, His-tagged (mouse, UniProt Q99PJ1 27-259, I108N).
T4 construct: Protocadherin-15 (PCDH15), mouse, N-terminal fragment EC1+2; Deafness-related missense mutation put into the mouse fragment m12 with QuikChange; also called pcdh15(I108N)
The description is as above.

For data set [10], the target named is T3, protocadherin-15 EC1+2, wild type, …. The data set is described as above.
The target in data set [11] is T5, protocadherin-15 EC1+2 H91R, His-tagged (mouse, UniProt Q99PJ1 27-259, H91R).
T5 construct: Protocadherin-15 (PCDH15), mouse, N-terminal fragment EC1+2; Mutant of m12 made with QuikChange; also called pcdh15(H91R)
The data set is described as above.

Data set [12] deals with T3, protocadherin-15 EC1+2, wild type, …. Description: SEC; analytical, Superdex 75 3.2/3.0, SEC buffer, 4°C, 100 μL loop, 0.05 mL/min; complex read from a decrease in elution volume of the mixture. (In general: Size exclusion chromatography separates by hydrodynamic size, large species first.)

Residue numbers refer to the chain shown, from its start. Numbers in names are those of the source.

B1: cadherin-23 EC1+2 (residues 1-205), wild type, tagless (domain or fragment, mouse)
chain: QVNRLPFFTNHFFDTYLLISEDTPVGSSVTQLLARDMDNDPLVFGVSGEEASRFFAVEPDTGVVWLRQPLDRETKSEFTVEFSVSDHQGVITRKVNIQVGDVNDNAPTFHNQPYSVRIPENTPVGTPIFIVNATDPDLGAGGSVLYSFQPPSPFFAIDSARGIVTVIQELDYEVTQAYQLTVNATDQDKTRPLSTLANLAIIITDA
notes: an Ala residue included between CDH23 EC2 and the intein tag to improve cleavage efficiency; pTXB1, NdeI/SapI; That the added Ala stays on the C-terminus after thiol-induced cleavage, and that a start Met precedes residue 1, are surmised; also called tag-free cdh23; tagless cdh23
As for B1, the Kd came out at 2000 ± 990 nM in data set [1]; 3940 ± 1110 nM in data set [2]; 3720 ± 1650 nM in data set [3]; 1110 ± 70 nM in data set [4]; 2600 nM in [5]; 1380 ± 360 nM in [6]. Further, the results for the koff in [1], in data set [2] and in [3] were 0.17 ± 0.01 s⁻¹, 0.22 ± 0.04 s⁻¹ and 0.2 ± 0.04 s⁻¹, respectively. In addition, the figures for the kon in [1], in [2] and in data set [3] were 94800 M⁻¹ s⁻¹, 55900 M⁻¹ s⁻¹ and 61900 M⁻¹ s⁻¹, respectively.

B2: cadherin-23 EC1+2 (residues 1-205) S76V, tagless (domain or fragment, mouse)
chain: B1 chain with S76V
notes: an Ala residue included between CDH23 EC2 and the intein tag to improve cleavage efficiency; Mutant of m8; That the added Ala stays on the C-terminus after cleavage is surmised; also called cdh23(S76V)
With B2, in [3], the affinity, expressed as Kd, was 2790 ± 880 nM; the koff stood at 0.18 ± 0.01 s⁻¹; the kon was determined as 68800 M⁻¹ s⁻¹. Moreover, binding in data set [6] was characterised by a dissociation constant (Kd) of 1160 ± 560 nM.

B3: cadherin-23 EC1+2 (residues 1-205) T15E, tagless (domain or fragment, mouse)
chain: B1 chain with T15E
notes: an Ala residue included between CDH23 EC2 and the intein tag to improve cleavage efficiency; Mutant of m8; That the added Ala stays on the C-terminus after cleavage is surmised; also called cdh23(T15E)
On to B3, for which the Kd in data set [1] is 1420 ± 50 nM; in [3] it was 2050 ± 100 nM; in [4] it was 620 ± 110 nM; in data set [6], 880 ± 60 nM. Also, the figures for the koff in data set [1] and in data set [3] were 0.09 s⁻¹ and 0.11 ± 0.01 s⁻¹, respectively. Further, the results for the on-rate constant (kon) in data set [1] and in data set [3] were 61400 M⁻¹ s⁻¹ and 55100 M⁻¹ s⁻¹, respectively.

B4: cadherin-23 EC1+2 (residues 1-205) F7E, tagless (domain or fragment, mouse)
chain: B1 chain with F7E
notes: an Ala residue included between CDH23 EC2 and the intein tag to improve cleavage efficiency; Mutant of m8; That the added Ala stays on the C-terminus after cleavage is surmised; also called cdh23(F7E)
Regarding B4, in data set [3], binding was characterised by a dissociation constant (Kd) of 3250 ± 250 nM, the koff came to 0.22 ± 0.04 s⁻¹ and the kon came out at 66000 M⁻¹ s⁻¹. In data set [6], this molecule yielded a dissociation constant Kd of 1580 ± 30 nM.

B5: cadherin-23 EC1+2, wild type, His-tagged (domain or fragment, mouse)
chain: QVNRLPFFTNHFFDTYLLISEDTPVGSSVTQLLARDMDNDPLVFGVSGEEASRFFAVEPDTGVVWLRQPLDRETKSEFTVEFSVSDHQGVITRKVNIQVGDVNDNAPTFHNQPYSVRIPENTPVGTPIFIVNATDPDLGAGGSVLYSFQPPSPFFAIDSARGIVTVIQELDYEVTQAYQLTVNATDQDKTRPLSTLANLAIIITD
notes: Cadherin-23 (CDH23), mouse, N-terminal fragment EC1+2; pET21a, NdeI/XhoI; predicted molecular weight 23.8 kDa; also called cdh23; cdh23(WT)
In the case of B5, in [7], the “ΔTm of pcdh15 at cdh23:pcdh15 1:1” value was 3 ± 0.5 °C, the “ΔTm of pcdh15 at cdh23:pcdh15 2:1” value was 4.5 ± 0.7 °C, the “ΔTm of pcdh15 at cdh23:pcdh15 3:1” value amounted to 5.6 °C and the “ΔTm of pcdh15 at cdh23:pcdh15 4:1” value came out at 6.2 ± 0.1 °C. For the same molecule, the “ΔTm of pcdh15 at cdh23:pcdh15 5:1” value in [7] was determined as 6.8 ± 0.4 °C. Further, in [8], the “ΔTm of pcdh15 at cdh23:pcdh15 1:1” value stood at 1.1 ± 0.4 °C, the “ΔTm of pcdh15 at cdh23:pcdh15 2:1” value is 1.7 ± 0.7 °C, the “ΔTm of pcdh15 at cdh23:pcdh15 3:1” value was determined as 2.3 ± 0.6 °C and the “ΔTm of pcdh15 at cdh23:pcdh15 4:1” value turned out to be 2.7 ± 0.9 °C. Also, in [8], the “ΔTm of pcdh15 at cdh23:pcdh15 5:1” value was 3.7 ± 1.1 °C. In data set [9], the “ΔTm of pcdh15 at cdh23:pcdh15 1:1” value was 0 °C, the “ΔTm of pcdh15 at cdh23:pcdh15 2:1” value came out at 0.2 ± 0.2 °C, the “ΔTm of pcdh15 at cdh23:pcdh15 3:1” value stood at 0.4 ± 0.1 °C and the “ΔTm of pcdh15 at cdh23:pcdh15 4:1” value is 0.4 ± 0.1 °C. In [9], the “ΔTm of pcdh15 at cdh23:pcdh15 5:1” value was determined as 0.5 °C. Also, in [10], the “ΔTm of pcdh15 at cdh23:pcdh15 1:1” value worked out at 1.8 ± 0.8 °C, the “ΔTm of pcdh15 at cdh23:pcdh15 2:1” value worked out at 3.2 ± 0.7 °C, the “ΔTm of pcdh15 at cdh23:pcdh15 3:1” value amounted to 4.1 ± 0.8 °C and the “ΔTm of pcdh15 at cdh23:pcdh15 4:1” value was found to be 5 ± 0.7 °C. Further, the “ΔTm of pcdh15 at cdh23:pcdh15 5:1” value in data set [10] amounted to 5.5 ± 0.8 °C.

B6: cadherin-23 EC1+2 T79E, His-tagged (domain or fragment, mouse)
chain: B5 chain with T79E
notes: Cadherin-23 (CDH23), mouse, N-terminal fragment EC1+2; Mutant of m1 made with QuikChange; also called cdh23(T79E)
With B6, in [11], the “ΔTm of pcdh15 at cdh23:pcdh15 1:1” value came to 2.1 ± 0.4 °C, the “ΔTm of pcdh15 at cdh23:pcdh15 2:1” value was found to be 4.1 ± 0.5 °C, the “ΔTm of pcdh15 at cdh23:pcdh15 3:1” value was found to be 5.3 ± 1.8 °C and the “ΔTm of pcdh15 at cdh23:pcdh15 4:1” value worked out at 6 ± 1.8 °C. For the same molecule, the “ΔTm of pcdh15 at cdh23:pcdh15 5:1” value in data set [11] was 7.3 ± 1.3 °C.

B7: cadherin-23 EC1+2 F7E, His-tagged (domain or fragment, mouse)
chain: B5 chain with F7E
notes: Cadherin-23 (CDH23), mouse, N-terminal fragment EC1+2; Mutant of m1 made with QuikChange; also called cdh23(F7E)
For B7, in [10], the “ΔTm of pcdh15 at cdh23:pcdh15 1:1” value is 1.7 ± 0.6 °C, the “ΔTm of pcdh15 at cdh23:pcdh15 2:1” value turned out to be 4.8 ± 0.6 °C, the “ΔTm of pcdh15 at cdh23:pcdh15 3:1” value was found to be 5.5 ± 0.3 °C and the “ΔTm of pcdh15 at cdh23:pcdh15 4:1” value worked out at 5.9 ± 0.2 °C. Moreover, the “ΔTm of pcdh15 at cdh23:pcdh15 5:1” value in [10] was 7 ± 0.2 °C.

B8: cadherin-23 EC1+2 T15E, His-tagged (domain or fragment, mouse)
chain: B5 chain with T15E
notes: Cadherin-23 (CDH23), mouse, N-terminal fragment EC1+2; Mutant of m1 made with QuikChange; also called cdh23(T15E)
Take B8: in data set [7], the “ΔTm of pcdh15 at cdh23:pcdh15 1:1” value came to 2.4 ± 0.4 °C, the “ΔTm of pcdh15 at cdh23:pcdh15 2:1” value came out at 4.5 ± 0.8 °C, the “ΔTm of pcdh15 at cdh23:pcdh15 3:1” value stood at 5.5 ± 0.7 °C and the “ΔTm of pcdh15 at cdh23:pcdh15 4:1” value was found to be 6.5 ± 1.2 °C. Moreover, the “ΔTm of pcdh15 at cdh23:pcdh15 5:1” value in [7] is 7.2 ± 1.1 °C. Moreover, in [10], the “ΔTm of pcdh15 at cdh23:pcdh15 1:1” value came out at 2.3 ± 0.4 °C, the “ΔTm of pcdh15 at cdh23:pcdh15 2:1” value came out at 3.9 °C, the “ΔTm of pcdh15 at cdh23:pcdh15 3:1” value came to 4.8 ± 0.1 °C and the “ΔTm of pcdh15 at cdh23:pcdh15 4:1” value came to 6 ± 0.5 °C. Further, the “ΔTm of pcdh15 at cdh23:pcdh15 5:1” value in [10] worked out at 6.7 ± 0.6 °C.

B9: cadherin-23 EC1+2 S76V, His-tagged (domain or fragment, mouse)
chain: B5 chain with S76V
notes: Cadherin-23 (CDH23), mouse, N-terminal fragment EC1+2; Mutant of m1 made with QuikChange; also called cdh23(S76V)
Consider B9, for which, in data set [10], the “ΔTm of pcdh15 at cdh23:pcdh15 1:1” value was 1.7 ± 1 °C, the “ΔTm of pcdh15 at cdh23:pcdh15 2:1” value is 3 ± 1.7 °C, the “ΔTm of pcdh15 at cdh23:pcdh15 3:1” value amounted to 4 ± 1.5 °C and the “ΔTm of pcdh15 at cdh23:pcdh15 4:1” value is 5.1 ± 1.8 °C. The “ΔTm of pcdh15 at cdh23:pcdh15 5:1” value in data set [10] stood at 5.4 ± 1.9 °C.

B10: cadherin-23 EC1+2 T190W, His-tagged (domain or fragment, mouse)
chain: B5 chain with T190W
notes: Cadherin-23 (CDH23), mouse, N-terminal fragment EC1+2; Mutant of m1 made with QuikChange; also called cdh23(T190W)
With B10, in [12], the binding result is recorded as “binds”.

The values are drawn from publication PMC5736220, “Using thermal scanning assays to test protein-protein interactions of inner-ear cadherins” (PLoS ONE, 2017).
